Experimental findings from the nanobody polyreactivity screen of Harvey et al. (2022) are described below.

The data set can be described thus: yeast display, Sf9 membrane polyspecificity reagent, FACS + sequencing; frameworks hold sequencing errors. In short, it runs like this:
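Genes from sorted yeast were amplified by colony PCR, read by MiSeq 2 × 250 sequencing and filtered on CDR length. These cells carried a synthetic nanobody library in Saccharomyces cerevisiae BJ5465 and were sorted by FACS into low and high (top ~1%) gates on anti-HA and streptavidin fluorescence. Polyreactivity is labelled according to the gate of origin.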
For “QVQLVESGGGLVQAGGSLRLSCAASGFTFRYYAMGWYRPAPGKERELVAAISWSGGSTYYADSVKGRFTISRDNAKNTVYLQMYTLIPEDTAVYDCNAAWPGYISNRLGYDYWGQGTQVTVSS”, the “polyreactivity (PSR sort gate)” value is “high polyreactivity”.

For “QVQLVESGGGLVQAGGSLRLSCAASGFTFRYYAMGWYRQAPGKEREFVAAIRSSGTTTSYADSVKGRFTISRDNAKNTVYLHMHSLKPEDTAVYYCAAGYFGPQQYYYWGQGTQVTVSS”, the “polyreactivity (PSR sort gate)” value is listed as “high polyreactivity”.

Take “QVQLVESGGGLVQAGGSLRLSCAASGFTFRYYAMGWYRQAPGKEREFVAAISRGGGTTYYADSVKGRFTISRDNAKNTVYLQMNSLKPEDTAVYYCATRALYWRYGYDYWGQGTQVTVSS”: the “polyreactivity (PSR sort gate)” value was “high polyreactivity”.

Regarding “QVQLVESGGGLVQAGGSLRLSCAASGFTFRYYAMGWYRQAPGKERELVAAINYSGGSTFYADSVKGRFTISRDNAKNTVYLQMNSLKPEDTAVYYCAATRLTPYIYGGKYNYWGQGTQVTVSS”, the “polyreactivity (PSR sort gate)” value is on record as “high polyreactivity”.

As to “QVQLVESGGGLVQAGGSLRLSCAASGFTFRYYAMGWYRQAPGKERELVAAITGSGVNTYYADSVKGRFTISRDNAKNTVYLQMNSLKPEDTAVYYCAAESESDPLFERYYWGQGTQVTVSS”, the “polyreactivity (PSR sort gate)” value is “high polyreactivity”.

Consider “QVQLVESGGGLVQAGGSLRLSCAASGFTFRYYAMGWYRQAPGKERELVAAITNVGSTNYADSVKGRFTMSRDNAKHTVYLQMNSLKPEDTAVYYCNARDYYSYDYWGQGTQVTVST”, for which the “polyreactivity (PSR sort gate)” value is on record as “high polyreactivity”.

Take “QVQLVESGGGLVQAGGSLRLSCAASGFTFRYYAMGWYRQAPGKERELVAAITSGDSTYYADSVKGRFTISRDNAKNTVYLQMNSLKPEDTAVYYCAAYYYGYDYWGQGTQVTVSS”: the “polyreactivity (PSR sort gate)” value is “high polyreactivity”.

“QVQLVESGGGLVQAGGSLRLSCAASGFTFRYYAMGWYRQAPGKERELVAAITSGGGSTYYADSVKGRFTISRDNAKNTVYLQMNSLKPEDTAVYYCATKRARYSYDYWGQGTQVTVSS”: the “polyreactivity (PSR sort gate)” value is “high polyreactivity”.

On to “QVQLVESGGGLVQAGGSLRLSCAASGFTFRYYAMGWYRQAPGKERELVAAITSRGGNTYYADSVKGRFTISRDNAKNTVYLQMNSLKPEDTAVYYCAARYSTTMDYWGQGTQVTVSS”, for which the “polyreactivity (PSR sort gate)” value was “high polyreactivity”.

Consider “QVQLVESGGGLVQAGGSLRLSCAASGFTFRYYAMGWYRQAPGKERELVAAITWSGGRTYYADSVKGRFTISRDNAKNTVYLQMNSLKPEDTAVYYCNTPSLWSGEDYWGQGTQVTVSS”, for which the “polyreactivity (PSR sort gate)” value is “high polyreactivity”.

For “QVQLVESGGGLVQAGGSLRLSCAASGFTFRYYAMGWYRQAPGKERELVAGISRGGSTYYADSVKGRFTISRDNAKNSVYLQMNSLKPEDTAVYYCAARSYARKSYEMGYWGQGTQVTVSS”, the “polyreactivity (PSR sort gate)” value is given as “high polyreactivity”.

For “QVQLVESGGGLVQAGGSLRLSCAASGFTFRYYAMGWYRQAPGKERELVAGISWSGSRTYYADSVKGRFTISRDNAKNTVYLQMNSLKPEDTAVYYCAKVNSYGPVPDRYDYWGQGTQVTVSS”, the “polyreactivity (PSR sort gate)” value is “high polyreactivity”.

Turning to “QVQLVESGGGLVQAGGSLRLSCAASGFTFRYYAMGWYRQAPGKERELVARISSRGGSTNYADSVKGRFTISRDNAKNTVYLQMNSLKAEDTAVYFCAAASWNSNRHYYVARYYYWGQGTQVTVSS”, the “polyreactivity (PSR sort gate)” value is listed as “high polyreactivity”.

For “QVQLVESGGGLVQAGGSLRLSCAASGFTFRYYAMGWYRQAPGKERELVASINWSGGSTYYADSVKGRFTISRDNAKNTVYFQMNSLKPEDTAVYYCAADSIWGHYFARFDYWVQGTQVTVSS”, the “polyreactivity (PSR sort gate)” value is “high polyreactivity”.

For “QVQLVESGGGLVQAGGSLRLSCAASGFTFRYYAMGWYRQAPGKERELVASISRSGSTNYADSVKGRFTISRDNAKNTVYLQMNSLKPEDTAVYYCAAQLYSRGGYWGQGTQVTVSS”, the “polyreactivity (PSR sort gate)” value is recorded as “high polyreactivity”.

With “QVQLVESGGGLVQAGGSLRLSCAASGFTFRYYAMGWYRQAPGQERELVAAITRGAGSTYYADSVKGRFTISRDNAKNTDYFQMNSLKPEDTAVYYCAAEFFQYYVATPFDPSNYWGQGTQVTVSS”, the “polyreactivity (PSR sort gate)” value is listed as “low polyreactivity”.

As for “QVQLVESGGGLVQAGGSLRLSCAASGFTFRYYAMGWYRQEPGKERELVAAISRSDSRTYADSVKGRFTISRDNAMNTVYIQMNSLNPEDTAVYYCNARYGYSSYVFIFDYWGQGTQVTVSS”, the “polyreactivity (PSR sort gate)” value is “high polyreactivity”.

Regarding “QVQLVESGGGLVQAGGSLRLSCAASGFTFRYYTMGWYRQAPGKERELVARITTGGSTYYADPVKGRFTISRDNAKKTVYLQMNSLKPEDTAVYFCAARLSRWWPPTGVHYTDRYYWGQGTQVTVSS”, the “polyreactivity (PSR sort gate)” value is listed as “high polyreactivity”.

Turning to “QVQLVESGGGLVQAGGSLRLSCAASGFTFRYYTMGWYRQAPGKERELVASITWRGGSTYYADSVKARFTISRDNAKNTVYLQMNSMKPEDTAVYYCNAERPYQYYPGIYRWYYYWGQGTQVTVSS”, the “polyreactivity (PSR sort gate)” value is “low polyreactivity”.

Turning to “QVQLVESGGGLVQAGGSLRLSCAASGFTFRYYVMGWYRQAPGIERELVAAISWSGGSTYYADSVKGRFTISRDNAKYTVYLQMNSLNPEDTAVYYCNAASLSKSDYWGQGTQVTVSS”, the “polyreactivity (PSR sort gate)” value was “high polyreactivity”.

In the case of “QVQLVESGGGLVQAGGSLRLSCAASGFTFRYYVMGWYRQAPGKERELVARISTGASTHYADSVKGRFTISRDNAKNSVYLQKNSLKPEDTAVYYCASDHPAFGPGYSFDYWGLGTQVTVSS”, the “polyreactivity (PSR sort gate)” value is “low polyreactivity”.

In the case of “QVQLVESGGGLVQAGGSLRLSCAASGFTFSAYAMGWSRQAPGKERELVAAITLRGGSTYYADSVKGRFTISRDNAKNTVYLQMNSLKPEDTAVYYCAADRIYVAYDYWGQGTQVTVSS”, the “polyreactivity (PSR sort gate)” value is “low polyreactivity”.

Regarding “QVQLVESGGGLVQAGGSLRLSCAASGFTFSEYAMGWYRQAPGKERELVAAISQRGGSTYYADSVKGRFTISRDNAKNTVYLQMNSLKPEDTAVYYCAADSARYYGAKRFGYWGQGTQVTVSS”, the “polyreactivity (PSR sort gate)” value is given as “high polyreactivity”.

Take “QVQLVESGGGLVQAGGSLRLSCAASGFTFSEYAMGWYRQAPGKERELVAAISRGTSTYYADSVKGRFTISRDNAKNTVYLQMNSVKPEDTAVYYCAAAPSYYPARHGYWGQVTQVTVSS”: the “polyreactivity (PSR sort gate)” value is “low polyreactivity”.

In the case of “QVQLVESGGGLVQAGGSLRLSCAASGFTFSFYAMGCDRQAPGKERELVATISSGGSTTYADSVKGRFTISRDNANNTVYLHMNSLKPEDTAVYYCAARYGRVRNYRYDYWGKGTQVTVSS”, the “polyreactivity (PSR sort gate)” value is on record as “high polyreactivity”.

Turning to “QVQLVESGGGLVQAGGSLRLSCAASGFTFSFYAMGWYRQAPGKERELVAPISYSGGITYYADSVKGRFTISRENWKNTVYLQMNSLKPEDTAVYYCAAVPYYSKGSSHYNSGNNYCGQGTQVTVSS”, the “polyreactivity (PSR sort gate)” value is reported as “low polyreactivity”.

For the sequence “QVQLVESGGGLVQAGGSLRLSCAASGFTFSFYSMGWYRQAPGKERELVASISDSDGITFYADSVKGSFTISRDNAKNTVYLQMNSLKPEDTAVYYCAADVAIAIPFSYDYWGQGTQVTVSS”, the “polyreactivity (PSR sort gate)” value is listed as “low polyreactivity”.

Consider “QVQLVESGGGLVQAGGSLRLSCAASGFTFSGYAMGWYRQAPGKERELVAAISTSGGNTYYADSVKGRFTISRDNAKNTVYLQMNSLKPEDTAVYYCAADDWPWGDAGVDYWGQGTLVTVSS”, for which the “polyreactivity (PSR sort gate)” value is on record as “low polyreactivity”.

With “QVQLVESGGGLVQAGGSLRLSCAASGFTFSHNAMGWYRQAPGKERELVAAISGSGGRTYYADSVKGRFTISRDNAKNTVYLQMNSLKPEDTAVYYCNAGRWWRRGYGYWGQGTQVTVSS”, the “polyreactivity (PSR sort gate)” value is “high polyreactivity”.

With “QVQLVESGGGLVQAGGSLRLSCAASGFTFSINTMGWYRQAPGKERQFVAGISRSGGSTYYADSVKWRFTISRDNAKNTVYLQMNSLKPEDTAVYYCAAGGPYWSRYEYWGQGNQVTVSS”, the “polyreactivity (PSR sort gate)” value is “high polyreactivity”.
